The target in the experiment is T1, human prostate-specific membrane antigen (PSMA), on prostate cancer LNCaP and PC-3 cells (human, UniProt Q04609 1-750).
T1 construct: also called glutamate carboxypeptidase II; GCPII
Put plainly: flow cytometry on LNCaP cells. (In general: In flow cytometry, cells or beads pass a laser one at a time.)

Where a chain is given by its changes, count along the chain named.

T1 sequence (Q04609 whole entry): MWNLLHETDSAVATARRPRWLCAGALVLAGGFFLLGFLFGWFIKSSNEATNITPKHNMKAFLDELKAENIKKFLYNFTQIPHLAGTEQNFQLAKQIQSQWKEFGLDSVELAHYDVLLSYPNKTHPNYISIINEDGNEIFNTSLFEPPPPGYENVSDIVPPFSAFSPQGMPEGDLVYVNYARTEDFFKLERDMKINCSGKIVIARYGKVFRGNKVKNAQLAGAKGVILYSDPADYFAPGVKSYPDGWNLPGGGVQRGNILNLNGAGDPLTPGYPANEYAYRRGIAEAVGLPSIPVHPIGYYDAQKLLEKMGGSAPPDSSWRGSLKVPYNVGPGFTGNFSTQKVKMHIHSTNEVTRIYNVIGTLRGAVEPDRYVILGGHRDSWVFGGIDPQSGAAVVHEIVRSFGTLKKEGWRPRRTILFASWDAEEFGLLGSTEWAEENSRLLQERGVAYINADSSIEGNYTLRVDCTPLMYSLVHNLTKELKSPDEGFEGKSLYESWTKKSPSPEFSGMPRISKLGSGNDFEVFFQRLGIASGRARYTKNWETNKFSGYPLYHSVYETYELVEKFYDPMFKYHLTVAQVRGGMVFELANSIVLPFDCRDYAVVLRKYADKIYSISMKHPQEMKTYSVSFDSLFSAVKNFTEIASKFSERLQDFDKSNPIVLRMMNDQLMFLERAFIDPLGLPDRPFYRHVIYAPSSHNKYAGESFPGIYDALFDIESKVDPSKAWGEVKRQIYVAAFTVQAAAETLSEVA

B1: Antibody No. 14 (antibody, V domains shown)
VH: VQLQESGPGLVQPSQSLSITCTVSGFSLTSYGVHWVRQSPGKGLEWLGVIWRGGSTDYNAAFMSRLSITKDNSKSQVFFKMNSLQADDTAIYYCAKKKYGNYGAMDYWGQGTTVTVSS
VL: DIVMTQSPKFLLVSAGDRVTITCKASQSVSNDVAWYQQKPGQSPKLLIYYASNRYTGVPDRFTGSGYGTDFTFTISTVQAEDLAVYFCQQDYSSPYTFGGGTKLELK
notes: Mouse hybridoma monoclonal IgG from ascites; also called PSMA-McAb clone 14
In the case of B1, the binding result was “binds”.

B2: Antibody No. 12 (antibody, V domains shown)
VH: VQLQESGPGLVKPSQSLSLTCTVTGYSITSDYAWNWIRQFPGNKLEWMGYISYSGSTSYNPSLKSRISITRDTSKNQFFLHLNSVTTEDTATYYCARQTYYYGSSPFTYWGQGTTVTVSS
VL: DIVMTQTPSSLTVTAGEKVTMRCKSSQSLLNSGNQKSYLTWYQQKPGQPPKLLIYWASTRESGVPDRFTGSGSGTDFTLTISSVQAEDLAVYYCQNDYSYPLTFGAGTKLELK
notes: Mouse hybridoma monoclonal IgG from ascites; also called PSMA-McAb clone 12
As to B2, the binding result was “binds”.

B3: Antibody No. 18 (antibody, V domains shown)
VH: VQLEESGDDLVKPGASVKLSCKASGHTFTSYWINWIKQRPGQGLEWIGRIAPGSGSTYYNEMFKGKATLTVDTSSSTAYIQLSSLSSEDSAVYFCARNLKYGNYGFAYWGQGTTVTVSS
VL: B2 VL with R22S, S37N, L112I
notes: Mouse hybridoma monoclonal IgG from ascites; also called PSMA-McAb clone 18
For B3, the binding result is listed as “binds”.

These data come from patent US20240002530A1 (LXZ SERVICES, published 2024).
